# Numbering of substitutions follows the chain as printed.
# T1: cyCD3e-Fc (cynomolgus, UniProt Q95LI5 22-117)
# T1 construct: not shown: Fc, not described
# T1 sequence (looked up): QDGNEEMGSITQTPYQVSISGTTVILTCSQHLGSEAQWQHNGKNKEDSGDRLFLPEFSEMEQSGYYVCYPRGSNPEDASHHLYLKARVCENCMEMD
# B1: AC3471 (CD3.23, WT) (bispecific antibody, V domains shown)
# VH: EVQLLESGGGIVQPGGSLKLSCAASGFTFNTYAMNWVRQAPGKGLEWVARIRSKYNNYATYYADSVKDRFTISRDDSKNTVYLQMNNLKTEDTAVYYCVRHENFGNSYVSWFAHWGQGTLVTVSS
# VL: ELVVTQEPSLTVSPGGTVTLTCRSSNGAVTSSNYANWVQQKPGQAPRGLIGGTNKRAPGTPARFSGSLLGGKAALTLSGVQPEDEAVYYCALWYPNLWVFGGGTKLTVL
# notes: Pool 2 format (remarks)
# B2: AC3768 (CD3.23 control) (scFv, V domains shown)
# VH: B1 VH
# VL: B1 VL
# notes: Pool 3 format (remarks)
# B3: AC3364 (CD3.23-L7, WT) (bispecific antibody, V domains shown)
# VH: B1 VH
# VL: B1 VL
# notes: Pool 1 format (remarks)
# B4: CD3.23 anti-CD3 scFv (scFv, V domains shown)
# VH: B1 VH
# VL: B1 VL
# notes: Parental domain
# B5: AC2717 (CD3.23, WT) (bispecific antibody, V domains shown)
# VH: B1 VH
# VL: B1 VL
# notes: Pool 2 format (remarks); paired with an anti-PSMA VHH variant
# B6: AC3796 (CD3.292) (scFv, V domains shown)
# VH: B1 VH with L5V, K19R, N30S, A49G, S53T, Y55R, D68G, N87S
# VL: B1 VL
# notes: Pool 3 format (remarks)
# B7: AC3799 (CD3.295) (scFv, V domains shown)
# VH: B1 VH with L5V, K19R, N30S, A49G, S53T, Y55R, D68G, N87S
# VL: B1 VL with L69N
# notes: Pool 3 format (remarks)
# B8: AC3822 (CD3.318) (scFv, V domains shown)
# VH: B1 VH with L5V, K19R, N30S, A49G, S53T, Y55R, N57D, D68G, V81L, N87S
# VL: B1 VL with G70E
# notes: Pool 3 format (remarks)
# B9: AC3682 (CD3.251) (bispecific antibody, V domains shown)
# VH: B1 VH with L5V, K19R, A49G, Y55R, Y61T, N87S
# VL: B1 VL
# notes: Pool 2 format (remarks)
# B10: AC2908 (EGFR.60/CD3.23 paTCE) (bispecific antibody)
# scFv 1: EIVLTQSPGTLSLSPGERATLSCQASQDISNYLNWYQQKPGQAPRLLIYDASNLETGIPDRFSGSGSGTDFTLTISRLEPEDFAVYYCQHFDHLPLAFGQGTKVEIKGATPPETGAETESPGETTGGSAESEPPGEGQVQLQQWGAGLLKPSETLSLTCAVYGGSVSSGDYYWTWIRQPPGKGLEWIGHIYYSGNTNYNPSLKSRVTISVDTSKNQFSLKLSSVTAADTAVYYCARDRVTGAFDIWGQGTLVTVSS
# scFv 2: ELVVTQEPSLTVSPGGTVTLTCRSSNGAVTSSNYANWVQQKPGQAPRGLIGGTNKRAPGTPARFSGSLLGGKAALTLSGVQPEDEAVYYCALWYPNLWVFGGGTKLTVLGATPPETGAETESPGETTGGSAESEPPGEGEVQLLESGGGIVQPGGSLKLSCAASGFTFNTYAMNWVRQAPGKGLEWVARIRSKYNNYATYYADSVKDRFTISRDDSKNTVYLQMNNLKTEDTAVYYCVRHENFGNSYVSWFAHWGQGTLVTVSS
# notes: EGFR library format (remarks)
# B11: AC2885 (EGFR.37/CD3.23 paTCE) (bispecific antibody)
# scFv 1: DIQMTQSPSSLSASVGDRVTITCQASQDISNYLNWYQQKPGKAPKLLIYDASNLETGVPSRFSGSGSGTDFTFTISSLQPEDIATYYCQHFDHLPLAFGQGTKVEIKGATPPETGAETESPGETTGGSAESEPPGEGQVQLQESGPGLVKPSETLSLTCTVSGGSVSSGDYYWTWIRQPPGKGLEWIGHIYYSGNTNYNPSLKSRVTISVDTSKNQFSLKLSSVTAADTAVYYCARDRVTGAFDIWGQGTLVTVSS
# scFv 2: B10 scFv 2
# notes: EGFR library format (remarks)
# B12: AC2921 (EGFR.73/CD3.23 paTCE) (bispecific antibody)
# scFv 1: B10 scFv 1 with G9A, D60A, R77S, Q143E, W144S, A146P, L149V, A160T, Y162S
# scFv 2: B10 scFv 2
# notes: EGFR library format (remarks)
# B13: AC2897 (EGFR.49/CD3.23 paTCE) (bispecific antibody)
# scFv 1: B11 scFv 1 with F73L, I83F
# scFv 2: B10 scFv 2
# notes: EGFR library format (remarks)
# B14: AC2920 (EGFR.72/CD3.23 paTCE) (bispecific antibody)
# scFv 1: B10 scFv 1 with G9A, D60A, R77S
# scFv 2: B10 scFv 2
# notes: EGFR library format (remarks)
# Assays:
# huCD3e = huCD3e (human, UniProt P07766 23-126); assay: Octet primary screen, crude lysate
# Sequence of huCD3e (P07766 23-126): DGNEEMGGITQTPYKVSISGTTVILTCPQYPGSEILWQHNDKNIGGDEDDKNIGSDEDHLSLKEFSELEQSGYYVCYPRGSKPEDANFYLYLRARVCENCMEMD
# Procedure: Stability and affinity of the individually expressed molecules in the form of crude lysate was evaluated by Octet. […] The binding of these anti-CD3 molecules (CD3.227, CD3.228, CD3.229 and CD3.230) to human and cynomolgus CD3 was measured by Octet and the Tₘ was measured by Differential Scanning Fluorimetry. All variants were paired with an anti-PSMA VHH.
# huCD3e-mFc [1] = target: T2, huCD3e-mFc (human, UniProt P07766 23-126); assay: Pool 3 screen
# T2 construct: not shown: mFc, not described
# T2 sequence (P07766 23-126): as above
# huCD3e-mFc [2] = target: T2, huCD3e-mFc; assay: Pool 3 screen, R2
# human CD3 [3] = target: T3, human CD3 (human, UniProt P07766 23-126); assay: Octet
# T3 sequence (P07766 23-126 limits assumed): as the sequence (P07766 23-126) above
# huCD3e-mFc [4] = target: T2, huCD3e-mFc; assay: Pool 3 screen, R3
# human CD3 [5] = target: T3, human CD3; assay: Octet, crude lysate
# Procedure: Structural considerations included: possible contact disruption, anticipated steric clashes, side chain charge maintenance and possible pockets filling. Stability and affinity of the individually expressed molecules in the form of crude lysate was evaluated by Octet (ForteBio).
# huCD3e-Fc = target: T4, huCD3e-Fc (human, UniProt P07766 23-126); assay: Octet, purified paTCE
# T4 construct: not shown: Fc, not described
# T4 sequence (P07766 23-126): as above
# Procedure: (§1) […] […] The binding of these anti-CD3 molecules (CD3.227, CD3.228, CD3.229 and CD3.230) to human and cynomolgus CD3 was measured by Octet and the Tₘ was measured by Differential Scanning Fluorimetry. All variants were paired with an anti-PSMA VHH.
# cyCD3e-Fc = target: T1, cyCD3e-Fc; assay: Octet, purified paTCE
# Procedure: as §1
# human EGFR [6] = target: T5, human EGFR (human, UniProt P00533 25-645, limits assumed); assay: cell-based or functional assay
# human CD3 [7] = target: T3, human CD3; assay: method not stated
# human EGFR [8] = target: T5, human EGFR; assay: BLI, room temperature
# Procedure: Each construct was expressed in small-scale and purified. Thermal stability was determined by Differential Scanning Fluorimetry. Melting temperature (Tₘ) determined by Differential Scanning Fluorimetry experiments described herein were performed either in duplicate or triplicate using GloMelt™ dye and QuantStudio5™. GloMelt™ dye undergoes fluorescence enhancement upon binding to hydrophobic regions of denatured proteins. Therefore, the dye can be used to detect protein unfolding or measure thermal stability. GloMelt™ dye is optimized for detection in the SYBR® Green channel of qPCR instruments. The Differential Scanning Fluorimetry experiments were performed in 96-well plates with 10 μg protein/reaction (equal to 0.5 mg/mL final protein concentration), reaction buffer, and GloMelt™ 10× dye according to manufacturer's instructions. Fluorescence of 96-well plates was read and melt curve plots were generated in the QuantStudio5™ qPCR system. Binding affinity was analyzed with bio-layer interferometry at room temperature with human EGFR as the antigen.
binder,measurement,setting,value
B1,Kd,huCD3e,13.5 nM
B2,Kd,huCD3e-mFc [1],4.67 nM
same,Kd,huCD3e-mFc [2],8 nM
same,Kd,human CD3 [3],4.67 nM
same,Kd,huCD3e-mFc [4],5.6 nM
B3,Kd,human CD3 [5],8.5 nM
B4,Kd,huCD3e-Fc,131 nM
same,koff,huCD3e-Fc,0.0289 s⁻¹
same,kon,huCD3e-Fc,220000 M⁻¹ s⁻¹
same,Kd,cyCD3e-Fc,130 nM
same,koff,cyCD3e-Fc,0.0312 s⁻¹
same,kon,cyCD3e-Fc,240000 M⁻¹ s⁻¹
B5,Kd,huCD3e,12.9 nM
B6,Kd,huCD3e-mFc [1],3.89 nM
same,Kd,huCD3e-mFc [2],4.1 nM
same,Kd,human CD3 [3],3.89 nM
same,Kd,huCD3e-mFc [4],3 nM
B7,Kd,huCD3e-mFc [1],3.11 nM
same,Kd,huCD3e-mFc [2],3.7 nM
same,Kd,human CD3 [3],3.11 nM
B8,Kd,huCD3e-mFc [1],5.38 nM
same,Kd,huCD3e-mFc [2],5.7 nM
same,Kd,human CD3 [3],5.38 nM
B9,Kd,huCD3e,32.8 nM
B10,"EC50 HT-29 (pM), in vitro cytotoxicity, E:T 5:1",human EGFR [6],94 pM
same,Kd,human CD3 [7],~203 nM
same,Kd,human EGFR [8],7.3 nM
B11,Kd,huCD3e-mFc [1],15.4 nM
same,Kd,human CD3 [7],203 nM
same,Kd,human EGFR [8],2.3 nM
B12,Kd,human CD3 [7],~203 nM
same,Kd,human EGFR [8],2.45 nM
B13,Kd,human CD3 [7],~203 nM
same,Kd,human EGFR [8],7.2 nM
B14,"EC50 HT-29 (pM), in vitro cytotoxicity, E:T 5:1",human EGFR [6],85 pM
same,Kd,human CD3 [7],~203 nM
same,Kd,human EGFR [8],4.4 nM

# Reference: patent US20260167728A1 (published 2026)
